Patent publication US20160115202A1 (OHIO STATE INNOVATION FOUNDATION, published 2016)
Read-outs that look alike come from different tables or passages of the source. Bridges are numbered along the chain shown (N, C = ends). Primed or numbered codes have the meaning given here. Where no end group is shown, it is not given here. [ ]: non-standard residue; d: D form. The star is where a group is joined. trimesoyl = trimesic acid scaffold joined by three amide bonds (bicycle); trimesoyl″ = trimesic acid scaffold joined by three amide bonds; FITC = O=C1OC2(c3ccc(O)cc3Oc3cc(O)ccc32)c2ccc(NC(=S)*)cc21; Phg = N[C@H](C(=O)O)c1ccccc1; Nle = CCCC[C@H](N)C(=O)O; Pra = C#CC[C@H](N)C(=O)O; dNal = D-naphthylalanine; Dap = NC[C@H](N)C(=O)O

What was measured:
[1] = target: GST-tagged K-Ras G12V protein (Example 4) (UniProt P01116); assay: FA, binding in solution
[2] = target: GST-tagged K-Ras G12V protein (Example 4) (UniProt P01116); assay: FA, binding in solution; remark: listed apart in the source
[3] = target: T1, ybbR-tagged extracellular domain of human TNFα (aa 77-233) (human, UniProt P01375 77-233, biotin or Texas Red attached at the ybbR tag by Sfp where labeled TNFα was used); assay: FA, resynthesized FITC-labeled peptide titrated with TNFα
T1 construct: range 77-233; Expressed in E. coli from pET-22b(+)-ybbR; also called TNF-alpha; tumor necrosis factor-alpha
T1 sequence (P01375 other isoform, or with tags, fused parts or gaps limits assumed): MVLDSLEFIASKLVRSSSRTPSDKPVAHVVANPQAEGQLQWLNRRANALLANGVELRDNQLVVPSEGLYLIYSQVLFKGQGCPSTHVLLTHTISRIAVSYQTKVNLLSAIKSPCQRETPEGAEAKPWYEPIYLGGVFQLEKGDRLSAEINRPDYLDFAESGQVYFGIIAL

[4] = target: T1, ybbR-tagged extracellular domain of …; assay: FA competition; competitor FITC-labeled Necrostatin C2 (100 nM), TNFα 1600 nM
[5] = target: T1, ybbR-tagged extracellular domain of …; assay: FA competition; competitor FITC-labeled Necrostatin C1 (100 nM), TNFα 1600 nM
[6] = target: T1, ybbR-tagged extracellular domain of …; assay: competition ELISA: 0.5 nM HRP-TNFR1 on immobilized biotinylated TNFα
Description: A Nunc 96F Maxisorp plate was coated overnight with 100 μL of 5 mg/mL Neutravidin (in 50 mM Na₂CO₃, pH 9.0) at 4° C. The solution was removed and each well was washed with 100 μL of the blocking buffer containing 3% BSA. […] The wells were quickly washed twice with a washing buffer (0.01% Tween 20 in PBS buffer). […] After incubation at 4° C. for 1.5 h, the plate was washed twice with the washing buffer and incubated with 100 μL of 3,3′,5,5′-tetramethylbenzidine (Sigma) for 30 min. The reaction was quenched by the addition of 100 μL of 1 M phosphoric acid. The absorbance at 450 nm was measured and plotted against the peptide concentration and the IC₅₀ value was obtained by curve fitting.

Molecule “peptide 13, bicyclo(Ala-Orn-Phg-Arg-d-Asn-Pra-Ile-d-Phe-K-FNalR4-Dap)-K” has a Kd [1] of 6000 nM.

B1: peptide 12, bicyclo(d-Ala-Gln-Phg-Arg-d-Asn-Pra-Ile-Asp-K-FNalR4-Dap)-K (peptide)
peptide: [dA]Q[Phg]R[dN][Pra]IDKF[dNal]RRRR[Dap]K
modifications: linker N-1-9-16 via trimesoyl″; not fully specified (residue 6); also: dye label on C-terminal Lys not given here
Molecule B1 has a Kd [2] of 2000 nM.

[Phg]Y[dA]KY[dF]G[dK]H[Dap]K(FITC) (linker (positions not given here) via trimesoyl; not fully specified (bridges)) [FITC-labeled Necrostatin C1 (resynthesized)] gave a Kd [3] of 450 nM.

B2: Necrostatin C2 (unlabeled) (peptide)
peptide: A[dF]W[dT]QK[Nle][dL]AH[Dap]
modifications: linker (positions not given here) via trimesic acid (trimesoyl); not fully specified (bridges)
notes: also called unlabeled Necrostatin C2
Work on B2 yielded an IC50 [4] of ~2000 nM and an IC50 [5] of ~4000 nM.

B3: Necrostatin C1 (label not stated) (peptide)
peptide: [Phg]Y[dA]KY[dF]G[dK]H[Dap]
modifications: linker (positions not given here) via trimesic acid (trimesoyl); not fully specified (bridges)
notes: As used in the TNFα-TNFR1 ELISA and the MTT assays; also called Nercostatin C1
With B3 the IC50 [6] was 3100 nM.
